Biological target: BCL6-POZ domain (residues 7 to 128 of human BCL6, C8Q, C67R, C84N) (human, UniProt P41182 7-128, cysteine8 mutated to glutamine | cysteine67 mutated to arginine | cysteine84 …)
Test: FP

Kd [µM]	Binder
41	LVATVKEAGRSIXEIPR (styrylalanine in place of histidine1426; BODIPY TMR dye coupled via the amino-terminal cysteine) [styryl-SMRT peptide, labelled with BODIPY TMR]
43	LVATVKEAGRSIXEIPR (homophenylalanine in place of histidine1426; BODIPY TMR dye coupled via the amino-terminal cysteine) [homophenylalanine-SMRT peptide, labelled with BODIPY TMR]

— article PMC3942486 (2014)
